Test results as given in patent US20080069777A1.

Tests used:
[1] = target: whole LFA-1 in which the α subunit contains an I-domain in the high affinity locked open state, on cells (HA cells) (human) (UniProt P05107); assay: cell-based or functional assay
[2] = target: whole LFA-1 in which the α subunit contains an I-domain in the high affinity locked open state, on cells (HA cells) (human) (UniProt P05107); assay: inhibition of ICAM binding to HA cells, Guava analysis; first experiment; first experiment
[3] = target: whole LFA-1 in which the α subunit contains an I-domain in the high affinity locked open state, on cells (HA cells) (human) (UniProt P05107); assay: inhibition of ICAM binding to HA cells, Guava analysis; third experiment; third experiment
[4] = target: whole LFA-1 in which the α subunit contains an I-domain in the high affinity locked open state, on cells (HA cells) (human) (UniProt P05107); assay: inhibition of ICAM binding to HA cells, Guava analysis; fourth experiment; fourth experiment
[5] = target: whole LFA-1 in which the α subunit contains an I-domain in the high affinity locked open state, on cells (HA cells) (human) (UniProt P05107); assay: inhibition of ICAM binding to HA cells, Guava analysis; second experiment; second experiment, first lot of D2-57 IgG
[6] = target: whole LFA-1 in which the α subunit contains an I-domain in the high affinity locked open state, on cells (HA cells) (human) (UniProt P05107); assay: inhibition of ICAM binding to HA cells, Guava analysis; second experiment; second experiment, second lot of D2-57 IgG
[7] = target: whole LFA-1 in which the α subunit contains an I-domain in the low affinity locked closed state, on cells (LA cells) (human) (UniProt P05107); assay: phage ELISA, LA form of LFA-1, with Mg2+
[8] = target: whole LFA-1 in which the α subunit contains an I-domain in the low affinity locked closed state, on cells (LA cells) (human) (UniProt P05107); assay: phage ELISA, LA form of LFA-1, without Mg2+
[9] = target: whole LFA-1 in which the α subunit contains an I-domain in the high affinity locked open state, on cells (HA cells) (human) (UniProt P05107); assay: phage ELISA, HA form of LFA-1, with Mg2+; phage ELISA on HA cells, with Mg2+
[10] = target: whole LFA-1 in which the α subunit contains an I-domain in the high affinity locked open state, on cells (HA cells) (human) (UniProt P05107); assay: phage ELISA, HA form of LFA-1, without Mg2+; phage ELISA on HA cells, without Mg2+; signal at background
[11] = target: whole LFA-1 in which the α subunit contains an I-domain in the high affinity locked open state, on cells (HA cells) (human) (UniProt P05107); assay: ICAM-1 blocking assay on HA cells, soluble Fab, flow cytometry; ligand ICAM-1/SV-PE; soluble Fab, ICAM-1 blocking on HA cells, FACS

| IC50 for inhibition of HA cell binding to keratinocytes [1] [nM] | IC50 [2] [nM] | IC50 [3] [nM] | IC50 [4] [nM] | IC50 [5] [nM] | IC50 [6] [nM] | ELISA signal (arbitrary units) [7] | ELISA signal (arbitrary units) [8] | ELISA signal (arbitrary units) [9] | ELISA signal (arbitrary units) [10] | IC50 [11] [nM] | Binder |
| --- | --- | --- | --- | --- | --- | --- | --- | --- | --- | --- | --- |
| 1 | 0.18 | 0.24 | 0.68 | 0.59 | 0.62 |  |  |  |  |  | D2-57 IgG1 (antibody, V domains shown) VH: EVQLLESGGGLVQPGGSLRLSCAASGFTFSRYVMWWVRQAPGKGLEWVSYIWPSGGNTYYADSVKGRFTISRDNSKNTLYLQMNSLRAEDTAVYYCASSYDFWSNAFDIWGQGTMVTVSS VL: DIQMTQSPSSLSASVGDRVTITCRASQSIGSYLNWYQQKTGKAPKALIYAASSLQSGVPSRFSGSGSGTDFTLTISSLQLEDFATYYCQQSYSTPSFGQGTKVEIKR |
|  |  |  |  |  |  | 0.13 | 0.07 | 0.68 | 0.09 | 11.5 | D2-57 Fab (Fab, V domains shown) VH: EVQLLESGGGLVQPGGSLRLSCAASGFTFSRYVMWWVRQAPGKGLEWVSYIWPSGGNTYYADSVKGRFTISRDNSKNTLYLQMNSLRAEDTAVYYCASSYDFWSNAFDIWGQGTMVTVSS VL: DIQMTQSPSSLSASVGDRVTITCRASQSIGSYLNWYQQKTGKAPKALIYAASSLQSGVPSRFSGSGSGTDFTLTISSLQLEDFATYYCQQSYSTPSFGQGTKVEIKR |
